Source: patent US20020165123A1 (published 2002)
Bridges are numbered along the chain shown (N, C = ends). Where no end group is shown, it is not given here.

B1: SDF-1(1-9)2-C9/C9-cysteine dimer (peptide)
peptide: KPVSLSYRC
modifications: also: homodimer via disulphide between Cys9 of the two chains
notes: Homodimer of SDF-1(1-9), with free acid C-termini; also called CTCE9901
B2: SDF-1(1-17) (peptide)
peptide: KPVSLSYRCPCRFFESH
notes: Linear peptide, free acid; also called CTCE9902
B3: SDF-1(1-8)2-lysine bridge dimer (peptide)
peptide: KPVSLSYRK-NH2
modifications: also: dimer: two chains' Arg8 amide-linked to one bridging lysine (alpha and epsilon amino groups)
notes: Two SDF-1(1-8) chains joined through one lysine amide; also called CTCE9904

What was measured:
[1] = molecular target: T1, CXC chemokine receptor 4 (CXCR4) (UniProt P61073 1-352, limits assumed); assay: competition against 4 nM 125I-SDF-1 on CEM cells (FIG. 2B)
T1 construct: whole, on cells; Endogenous receptor on CEM and THP-1 cells; also called SDF-1 receptor; fusin
Procedure: SDF-1 and the indicated analogs (competing ligands, described in Examples) were added at the concentrations illustrated in the presence of 4 nM ¹²⁵I-SDF-1. CEM cells were assessed for ¹²⁵I-SDF-1 binding following 2 hr of incubation. The results are expressed as percentages of the maximal specific binding that was determined without competing ligand, and are the mean of three independent experiments.
A competitive dose response for binding to the SDF-1 receptor by native SDF-1 and the CXCR4 agonists against ¹²⁵I-SDF-1 is shown in FIGS. 2A and 2B respectively. A concentration-dependent inhibition of ¹²⁵I-SDF-1 is illustrated in FIG. 2A, indicating the affinity of SDF-1 for the receptor. […] SDF-1 and the indicated analogs (competing ligands) were added at the concentrations illustrated in the presence of 4 nM ¹²⁵I-SDF-1. CEM cells were assessed for ¹²⁵I-SDF-1 binding following 2 hr of incubation. The results are expressed as percentages of the maximal specific binding that was determined without competing ligand, and are the mean of three independent experiments. The inhibition of ¹²⁵I-SDF-1 by SDF-1 and the SDF-1 analogs is indicative of CXCR4 receptor binding. The compounds illustrated in the figure are as follows: SDF-1(1-14)-(G)₄-SDF-1(55-67)-K20/E24-cyclic amide (CTCE0021), SDF-1(1-14)-(G)₄-SDF-1(55-67)-E24/K28-cyclic amide (CTCE0022), SDF-1(1-9)₂-C9/C9-cysteine dimer (CTCE9901), SDF-1(1-17) (CTCE9902), SDF-1(1-8)₂-lysine bridge dimer (CTCE9904) and SDF-1(1-14)-(G)₄-SDF-1(55-67) amide (CTCE0017).

[2] = molecular target: T1, CXC chemokine receptor 4 (CXCR4); assay: cell-based or functional assay

T1 sequence (P61073 whole entry): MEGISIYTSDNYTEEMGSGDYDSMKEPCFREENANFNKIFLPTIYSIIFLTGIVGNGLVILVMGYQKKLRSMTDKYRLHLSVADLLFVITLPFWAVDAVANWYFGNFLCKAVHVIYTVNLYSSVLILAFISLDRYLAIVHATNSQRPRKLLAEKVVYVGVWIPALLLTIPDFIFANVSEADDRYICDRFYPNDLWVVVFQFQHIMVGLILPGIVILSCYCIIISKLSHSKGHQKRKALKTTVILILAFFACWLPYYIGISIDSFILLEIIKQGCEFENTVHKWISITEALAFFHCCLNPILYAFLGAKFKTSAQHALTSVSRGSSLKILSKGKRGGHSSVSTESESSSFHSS

| Binder | binding result [1] | EC50 of [Ca2+]i mobilization, fura-2,AM loaded THP-1 cells [2] |
| --- | --- | --- |
| B1 | binds | – |
| KPVSLSYRCPCRFFGGGGLKWIQEYLEKALN-NH2 (lactam 24-28; cysteine pairing not given here) [SDF-1(1-14)-(G)4-SDF-1(55-67)-E24/K28-cyclic amide] | – | 106 nM |
| B2 | binds | – |
| B3 | binds | – |
| KPVSLSYRCPCRFFGGGGLKWIQEYLEKALN-OH (cysteine pairing not given here) [SDF-1(1-14)-(G)4-SDF-1(55-67) acid] | – | 188 nM |
| KPVSLSYRCPCRFFGGGGLKWIQEYLEKALN-NH2 (lactam 20-24; cysteine pairing not given here) [SDF-1(1-14)-(G)4-SDF-1(55-67)-K20/E24-cyclic amide] | – | 148 nM |
